For the experiment, the target named is T1, TNFR1 (Homo sapiens, UniProt P19438).
T1 chain: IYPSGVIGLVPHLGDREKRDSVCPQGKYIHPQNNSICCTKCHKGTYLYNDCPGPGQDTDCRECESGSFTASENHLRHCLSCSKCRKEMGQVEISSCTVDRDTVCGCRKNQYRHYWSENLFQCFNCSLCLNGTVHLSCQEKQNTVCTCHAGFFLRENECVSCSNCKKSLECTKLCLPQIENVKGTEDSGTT
The experiment can be described thus: yeast display SC50.

B1: E4C (designed binder)
chain: SMECEVEKAAKEYEKKKKEAIEKHLEKLKAKDKEAAERFLKELEEAAKEYAKDEAKTMSEEEAKRRAKKYKEKVLLSELSEEEQKEIKEAEEKLVRTILKYVEEAAK
For B1, the “apparent Kd (screen)” value came out at 1.27 nM.

B2: E62G (designed binder)
chain: SMEEEVEKAAKEYEKKKKEAIEKHLEKLKAKDKEAAERFLKELEEAAKEYAKDEAKTMSEEGAKRRAKKYKEKVLLSELSEEEQKEIKEAEEKLVRTILKYVEEAAK
Consider B2, for which the “apparent Kd (screen)” value came out at 2.25 nM.

B3: K41V (designed binder)
chain: SMEEEVEKAAKEYEKKKKEAIEKHLEKLKAKDKEAAERFLVELEEAAKEYAKDEAKTMSEEEAKRRAKKYKEKVLLSELSEEEQKEIKEAEEKLVRTILKYVEEAAK
Take B3: the “apparent Kd (screen)” value was determined as 0.446 nM.

B4: I87M (designed binder)
chain: SMEEEVEKAAKEYEKKKKEAIEKHLEKLKAKDKEAAERFLKELEEAAKEYAKDEAKTMSEEEAKRRAKKYKEKVLLSELSEEEQKEMKEAEEKLVRTILKYVEEAAK
For the molecule B4, the “apparent Kd (screen)” value was 10.4 nM.

B5: K88W (designed binder)
chain: SMEEEVEKAAKEYEKKKKEAIEKHLEKLKAKDKEAAERFLKELEEAAKEYAKDEAKTMSEEEAKRRAKKYKEKVLLSELSEEEQKEIWEAEEKLVRTILKYVEEAAK
In the case of B5, the “apparent Kd (screen)” value was found to be 0.49 nM.

B6: K88V (designed binder)
chain: SMEEEVEKAAKEYEKKKKEAIEKHLEKLKAKDKEAAERFLKELEEAAKEYAKDEAKTMSEEEAKRRAKKYKEKVLLSELSEEEQKEIVEAEEKLVRTILKYVEEAAK
On to B6, for which the “apparent Kd (screen)” value amounted to 0.79 nM.

B7: S77W (designed binder)
chain: SMEEEVEKAAKEYEKKKKEAIEKHLEKLKAKDKEAAERFLKELEEAAKEYAKDEAKTMSEEEAKRRAKKYKEKVLLWELSEEEQKEIKEAEEKLVRTILKYVEEAAK
In the case of B7, the “apparent Kd (screen)” value was determined as 1.05 nM.

B8: E4D (designed binder)
chain: SMEDEVEKAAKEYEKKKKEAIEKHLEKLKAKDKEAAERFLKELEEAAKEYAKDEAKTMSEEEAKRRAKKYKEKVLLSELSEEEQKEIKEAEEKLVRTILKYVEEAAK
Regarding B8, the “apparent Kd (screen)” value was found to be 0.446 nM.

B9: Y101D (designed binder)
chain: SMEEEVEKAAKEYEKKKKEAIEKHLEKLKAKDKEAAERFLKELEEAAKEYAKDEAKTMSEEEAKRRAKKYKEKVLLSELSEEEQKEIKEAEEKLVRTILKDVEEAAK
Consider B9, for which the “apparent Kd (screen)” value is 0.446 nM.

B10: M2A (designed binder)
chain: SAEEEVEKAAKEYEKKKKEAIEKHLEKLKAKDKEAAERFLKELEEAAKEYAKDEAKTMSEEEAKRRAKKYKEKVLLSELSEEEQKEIKEAEEKLVRTILKYVEEAAK
As to B10, the “apparent Kd (screen)” value was 0.49 nM.

B11: E19V (designed binder)
chain: SMEEEVEKAAKEYEKKKKVAIEKHLEKLKAKDKEAAERFLKELEEAAKEYAKDEAKTMSEEEAKRRAKKYKEKVLLSELSEEEQKEIKEAEEKLVRTILKYVEEAAK
On to B11, for which the “apparent Kd (screen)” value worked out at 0.446 nM.

B12: K41I (designed binder)
chain: SMEEEVEKAAKEYEKKKKEAIEKHLEKLKAKDKEAAERFLIELEEAAKEYAKDEAKTMSEEEAKRRAKKYKEKVLLSELSEEEQKEIKEAEEKLVRTILKYVEEAAK
As for B12, the “apparent Kd (screen)” value worked out at 0.539 nM.

B13: Y70P (designed binder)
chain: SMEEEVEKAAKEYEKKKKEAIEKHLEKLKAKDKEAAERFLKELEEAAKEYAKDEAKTMSEEEAKRRAKKPKEKVLLSELSEEEQKEIKEAEEKLVRTILKYVEEAAK
With B13, the “apparent Kd (screen)” value came to 5.31 nM.

B14: K15I (designed binder)
chain: SMEEEVEKAAKEYEIKKKEAIEKHLEKLKAKDKEAAERFLKELEEAAKEYAKDEAKTMSEEEAKRRAKKYKEKVLLSELSEEEQKEIKEAEEKLVRTILKYVEEAAK
As for B14, the “apparent Kd (screen)” value worked out at 0.869 nM.

B15: M58L (designed binder)
chain: SMEEEVEKAAKEYEKKKKEAIEKHLEKLKAKDKEAAERFLKELEEAAKEYAKDEAKTLSEEEAKRRAKKYKEKVLLSELSEEEQKEIKEAEEKLVRTILKYVEEAAK
Take B15: the “apparent Kd (screen)” value is 2.73 nM.

B16: K64T (designed binder)
chain: SMEEEVEKAAKEYEKKKKEAIEKHLEKLKAKDKEAAERFLKELEEAAKEYAKDEAKTMSEEEATRRAKKYKEKVLLSELSEEEQKEIKEAEEKLVRTILKYVEEAAK
As for B16, the “apparent Kd (screen)” value was 1.4 nM.

B17: K71Y (designed binder)
chain: SMEEEVEKAAKEYEKKKKEAIEKHLEKLKAKDKEAAERFLKELEEAAKEYAKDEAKTMSEEEAKRRAKKYYEKVLLSELSEEEQKEIKEAEEKLVRTILKYVEEAAK
Take B17: the “apparent Kd (screen)” value was determined as 1.05 nM.

B18: K88Q (designed binder)
chain: SMEEEVEKAAKEYEKKKKEAIEKHLEKLKAKDKEAAERFLKELEEAAKEYAKDEAKTMSEEEAKRRAKKYKEKVLLSELSEEEQKEIQEAEEKLVRTILKYVEEAAK
Take B18: the “apparent Kd (screen)” value is 0.49 nM.

B19: E83T (designed binder)
chain: SMEEEVEKAAKEYEKKKKEAIEKHLEKLKAKDKEAAERFLKELEEAAKEYAKDEAKTMSEEEAKRRAKKYKEKVLLSELSEETQKEIKEAEEKLVRTILKYVEEAAK
For the molecule B19, the “apparent Kd (screen)” value came to 0.49 nM.

B20: L43R (designed binder)
chain: SMEEEVEKAAKEYEKKKKEAIEKHLEKLKAKDKEAAERFLKEREEAAKEYAKDEAKTMSEEEAKRRAKKYKEKVLLSELSEEEQKEIKEAEEKLVRTILKYVEEAAK
Consider B20, for which the “apparent Kd (screen)” value stood at 13.8 nM.

B21: L28K (designed binder)
chain: SMEEEVEKAAKEYEKKKKEAIEKHLEKKKAKDKEAAERFLKELEEAAKEYAKDEAKTMSEEEAKRRAKKYKEKVLLSELSEEEQKEIKEAEEKLVRTILKYVEEAAK
For B21, the “apparent Kd (screen)” value was determined as 1.54 nM.

B22: E4K (designed binder)
chain: SMEKEVEKAAKEYEKKKKEAIEKHLEKLKAKDKEAAERFLKELEEAAKEYAKDEAKTMSEEEAKRRAKKYKEKVLLSELSEEEQKEIKEAEEKLVRTILKYVEEAAK
As to B22, the “apparent Kd (screen)” value came to 1.86 nM.

B23: E61F (designed binder)
chain: SMEEEVEKAAKEYEKKKKEAIEKHLEKLKAKDKEAAERFLKELEEAAKEYAKDEAKTMSEFEAKRRAKKYKEKVLLSELSEEEQKEIKEAEEKLVRTILKYVEEAAK
For B23, the “apparent Kd (screen)” value stood at 0.718 nM.

B24: E89H (designed binder)
chain: SMEEEVEKAAKEYEKKKKEAIEKHLEKLKAKDKEAAERFLKELEEAAKEYAKDEAKTMSEEEAKRRAKKYKEKVLLSELSEEEQKEIKHAEEKLVRTILKYVEEAAK
For the molecule B24, the “apparent Kd (screen)” value stood at 1.69 nM.

B25: D53V (designed binder)
chain: SMEEEVEKAAKEYEKKKKEAIEKHLEKLKAKDKEAAERFLKELEEAAKEYAKVEAKTMSEEEAKRRAKKYKEKVLLSELSEEEQKEIKEAEEKLVRTILKYVEEAAK
As for B25, the “apparent Kd (screen)” value turned out to be 12.5 nM.

B26: A35W (designed binder)
chain: SMEEEVEKAAKEYEKKKKEAIEKHLEKLKAKDKEWAERFLKELEEAAKEYAKDEAKTMSEEEAKRRAKKYKEKVLLSELSEEEQKEIKEAEEKLVRTILKYVEEAAK
As for B26, the “apparent Kd (screen)” value came out at 1.86 nM.

B27: K88E (designed binder)
chain: SMEEEVEKAAKEYEKKKKEAIEKHLEKLKAKDKEAAERFLKELEEAAKEYAKDEAKTMSEEEAKRRAKKYKEKVLLSELSEEEQKEIEEAEEKLVRTILKYVEEAAK
As to B27, the “apparent Kd (screen)” value stood at 0.49 nM.

B28: A46V (designed binder)
chain: SMEEEVEKAAKEYEKKKKEAIEKHLEKLKAKDKEAAERFLKELEEVAKEYAKDEAKTMSEEEAKRRAKKYKEKVLLSELSEEEQKEIKEAEEKLVRTILKYVEEAAK
Consider B28, for which the “apparent Kd (screen)” value was found to be 2.48 nM.

B29: E22M (designed binder)
chain: SMEEEVEKAAKEYEKKKKEAIMKHLEKLKAKDKEAAERFLKELEEAAKEYAKDEAKTMSEEEAKRRAKKYKEKVLLSELSEEEQKEIKEAEEKLVRTILKYVEEAAK
Consider B29, for which the “apparent Kd (screen)” value was determined as 0.539 nM.

B30: R38N (designed binder)
chain: SMEEEVEKAAKEYEKKKKEAIEKHLEKLKAKDKEAAENFLKELEEAAKEYAKDEAKTMSEEEAKRRAKKYKEKVLLSELSEEEQKEIKEAEEKLVRTILKYVEEAAK
For the molecule B30, the “apparent Kd (screen)” value is 2.48 nM.

B31: A106Q (designed binder)
chain: SMEEEVEKAAKEYEKKKKEAIEKHLEKLKAKDKEAAERFLKELEEAAKEYAKDEAKTMSEEEAKRRAKKYKEKVLLSELSEEEQKEIKEAEEKLVRTILKYVEEAQK
Take B31: the “apparent Kd (screen)” value is 2.05 nM.

B32: R66E (designed binder)
chain: SMEEEVEKAAKEYEKKKKEAIEKHLEKLKAKDKEAAERFLKELEEAAKEYAKDEAKTMSEEEAKREAKKYKEKVLLSELSEEEQKEIKEAEEKLVRTILKYVEEAAK
Regarding B32, the “apparent Kd (screen)” value came to 18.3 nM.

B33: K15S (designed binder)
chain: SMEEEVEKAAKEYESKKKEAIEKHLEKLKAKDKEAAERFLKELEEAAKEYAKDEAKTMSEEEAKRRAKKYKEKVLLSELSEEEQKEIKEAEEKLVRTILKYVEEAAK
In the case of B33, the “apparent Kd (screen)” value came to 0.653 nM.

(Values after article PMC12416549 (2024).)
